Changes are numbered by the printed parent chain. Names may count otherwise.

The data set concerns the molecule itself. Briefly: AUC; sedimentation equilibrium at 20 °C; 2.5 μM enzyme (tetramer) with 2.5 μM HEX-21 DNA duplex; AUC buffer (10 mM Tris-HCl, 50 mM NaCl, 10 mM CaCl2, 1 mM DTT, pH 7.9); absorbance of the HEX label at 539 nm; 10,000, 15,000 and 25,000 rpm, global fit to a single species; oligomeric state of the protein bound to DNA.

B1: SfiI restriction endonuclease, wild type (enzyme)
chain: MHQDYRELSLDELESVEKQTLRTIVQALQQYSKEAKSIFETTAADSSGEVIVLAEDITQYALEVAETYPINRRFAGFIDYKRVRWLPSPHGLLPQVLLVDAKASTEKNRDTLQRSQLPMDAEFRNTSSGEVVTMEAGVIPHLMLQSANDGVLPAVTTSIFVHFYYRELKDVEGRYRELKSIYVLSLPHARLKQRYNPDPDTSFFGAGKHSPARGEVARIRVYFDRLKEACPWRLQELHYSADSEYTQPRWRDLNDAGHEVTKEFLFLER
notes: SfiI restriction endonuclease, expressed from the SfiI restriction gene on pRRS-SfiIR+; tetramer of identical subunits, Mr of the tetramer printed as 124,176; The plasmid carries the SfiI restriction gene, and the printed tetramer Mr of 124,176 fits four whole subunits; In the AUC the protein stood with the 21-bp DNA duplex HEX-21 and Ca2+; also called wt SfiI; SfiI endonuclease; source: E. coli …
In the case of B1, the “stoichiometry N” value came out at 4.

B2: SfiI restriction endonuclease, Y68F mutant (enzyme)
chain: B1 chain with Y68F
notes: SfiI restriction endonuclease with Tyr68 replaced by Phe (QuikChange mutagenesis of pRRS-SfiIR+); Same construct as m1 apart from Y68F; also called Y68F protein; source: E. coli ER2238 (transformed with pSYX33-SfiIM+ and a derivative of pRRS-SfiIR+), purified as described previously
With B2, the “stoichiometry N” value is 4.

The stoichiometry N is the number of molecules, sites or subunits per partner or assembly.

The record behind these values is publication PMC2082129, “A Switch in the Mechanism of Communication between the Two DNA-Binding Sites in the SfiI Restriction Endonuclease” (Journal of Molecular Biology, 2007).
